# Measured values from paper PMC4538830.
# T1: full-length recombinant His tagged CTNNBL1 (human), Q8WYA6
# T1 chain: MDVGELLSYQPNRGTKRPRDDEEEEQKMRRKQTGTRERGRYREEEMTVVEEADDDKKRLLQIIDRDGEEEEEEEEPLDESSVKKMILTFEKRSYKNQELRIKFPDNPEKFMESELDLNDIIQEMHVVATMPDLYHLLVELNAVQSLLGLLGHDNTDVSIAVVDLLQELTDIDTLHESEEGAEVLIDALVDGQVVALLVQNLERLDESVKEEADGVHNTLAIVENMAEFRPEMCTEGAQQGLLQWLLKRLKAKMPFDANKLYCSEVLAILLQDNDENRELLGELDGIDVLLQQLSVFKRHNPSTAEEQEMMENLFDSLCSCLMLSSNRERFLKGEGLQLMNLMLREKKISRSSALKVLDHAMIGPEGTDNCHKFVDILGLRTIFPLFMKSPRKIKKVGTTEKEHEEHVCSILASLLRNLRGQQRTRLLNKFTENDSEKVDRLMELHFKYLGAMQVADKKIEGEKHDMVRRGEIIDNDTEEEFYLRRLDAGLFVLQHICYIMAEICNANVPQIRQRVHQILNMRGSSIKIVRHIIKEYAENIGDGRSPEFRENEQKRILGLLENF
# B1: full-length recombinant His tagged CTNNBL1, Q8WYA6 1-563 (natural protein)
# chain: T1 chain
# Biological target: T1, full-length recombinant His tagged …
# Assay: SEC-MALS; CTNNBL1 (full length or [77–563]) alone; also in high salt buffer (0.5 M NaCl) or with CWC15[80–229] added; Supplementary Figure S7
# Settings: remark: other sources report otherwise
binder,measurement,value
B1,stoichiometry N,3
